From article PMC12609799, “Novel Dual-Coenzyme Specificity and Thermostability of Malate Dehydrogenase Identified in the Cyanobacterium Microcystis aeruginosa PCC7806” (International Journal of Molecular Sciences, 2025) come the findings set out here.

Substrate in data set [1]: NC(=O)C1=CN([C@@H]2O[C@H](COP(=O)(O)OP(=O)(O)OC[C@H]3O[C@@H](n4cnc5c(N)ncnc54)[C@H](O)[C@@H]3O)[C@@H](O)[C@H]2O)C=CC1
The data set is described as follows: purified protein. The class given is biochemical, Microcystis aeruginosa. The settings on record: oxaloacetate reduction, 100 mM Tris-HCl pH 8.0, 25 °C, apparent, varied: cofactor.

Substrate in data set [2]: NC(=O)C1=CN([C@@H]2O[C@H](COP(=O)(O)OP(=O)(O)OC[C@H]3O[C@@H](n4cnc5c(N)ncnc54)[C@H](OP(=O)(O)O)[C@@H]3O)[C@@H](O)[C@H]2O)C=CC1
The data set is described as follows: purified protein. In kind it is biochemical, Microcystis aeruginosa. The settings on record: oxaloacetate reduction, 100 mM Tris-HCl pH 8.0, 25 °C, apparent, varied: cofactor.

B1: MaMDH (Ma7806MDH) (Microcystis aeruginosa PCC 7806SL) (protein)
chain: MVDFYDTLIPCQSPRVSVIGAGNVGRTLAQRIAEKNLADVVLLDIVHGLPQGIALDLMEAQGIELHDSEIIGTNNYEDTAGSDIVVITAGLARKPGMSRDDLMNVNAKIVVEAATKCLKYSPEAIFIVITNPLDVMTYLVWQATGLPPQRVMGMAGVLDSSRLQTFIAMELGVSTADVHAMVLGGHGDLMLPLPRYCTVSGVPITELMDEITINRLVERTRNGGAEIVKLLQTGGAYYAPASSACTMVETILRNQSRLLPAAAYLKGEYGLQDVYLGVPCRLGCRGVESILEVRLTDAERLDLHTSAASVRQNVHLALDSLKVLM
Usually Km stands for the concentration of substrate that gives half-maximal velocity. The kcat is the number of substrate molecules converted per active site and unit of time at saturation. The kcat/Km is the second-order rate constant that governs catalysis at low substrate concentration. Regarding B1, in “purified protein [1]”, the Km came out at 33.140 ± 0.95 µM, the kcat is 31.7 ± 1.43 s⁻¹ and the kcat/Km was found to be 956000 M⁻¹ s⁻¹. In “purified protein [2]”, the Km turned out to be 113.200 ± 3.46 µM, the kcat was found to be 8.71 ± 1.45 s⁻¹ and the kcat/Km was 77000 M⁻¹ s⁻¹.
